Assay results: patent publication US20240301062A1 (BEIGENE SWITZERLAND, published 2024)

T1: human claudin 6 (CLDN6) (human, UniProt P56747 1-220)
T1 construct: also called human CLDN6; hCLDN6
T1 sequence: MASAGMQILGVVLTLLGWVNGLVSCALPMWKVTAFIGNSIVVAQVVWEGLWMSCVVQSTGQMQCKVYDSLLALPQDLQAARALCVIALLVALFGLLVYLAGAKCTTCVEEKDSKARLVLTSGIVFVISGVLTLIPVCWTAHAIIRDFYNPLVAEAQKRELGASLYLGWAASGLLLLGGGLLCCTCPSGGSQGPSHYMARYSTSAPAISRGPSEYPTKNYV


biological target: T1, human claudin 6 (CLDN6); assay: FACS, HEK293T/human CLDN6 cells
Experimental: For affinity determination, CLDN6 over-expressing HEK293T cells and cancer cell line PA-1 which express high levels of human CLDN6 were used to evaluate the binding activity of BG87P related engineering variants. Live cells were seeded in 96-well plate, and were incubated with a series of dilutions of chBG87P and engineered variants thereof. Goat anti-human IgG was used as second antibody to detect antibody binding to the cell surface. EC50 values for dose-dependent binding to CLDN6 expressing cell lines were determined by fitting the dose-response data to the four-parameter logistic model with GraphPad Prism. Cell binding activity of 1st round of BG87P humanization variants against HEK293T/human CLDN6 were compared to chBG87P and shown in FIG. 1A.
Beginning with the chBG87P antibody and BG87P-Bz0, several additional amino acid changes in the CDR regions of both VH and VL were made to further improve the biophysical properties for therapeutics use in human. The considerations included removing post translational modifications (PTM), improved heat stability (Tm), while maintaining binding activities, the resulted variants are BG87P-m1 (VH SEQ ID NO: 31 and VL SEQ ID NO: 8), BG87P-m2 (VH SEQ ID NO: 32 and VL SEQ ID NO: 8), BG87P-m3 (VH SEQ ID NO: 33 and VL SEQ ID NO: 8), and BG87P-m4 (VH SEQ ID NO: 34 and VL SEQ ID NO: 8) and BG87P-m5 (VH SEQ ID NO: 35 and VL SEQ ID NO: 14), BG87P-m6 (VH SEQ ID NO: 36 and VL SEQ ID NO 14), BG87P-m7 (VH SEQ ID NO: 37 and VL SEQ ID NO: 14), and BG87P-m8 (VH SEQ ID NO: 38 and VL SEQ ID NO: 14). Cell binding activity of chBG87P and BG87P-Bz0 related PTM removal variants against HEK293T/human CLDN6 was compared with chBG87P and BG87-Bz0, respectively ([…]). Cell binding affinity (EC50) and Emax (MFI) was normalized to chBG87P for directly comparison and ranking (Table 7).

EC50 [nM]	Emax ratio to BG87P [ratio]	Top MFI Mean [MFI]	Binder
2.1	0.56	107000	BG87P-Bz0 (antibody, V domains shown, also called BG87-Bz0) VH: QIQLVQSGAEVKKPGASVKVSCKASGYSFTDYHINWVRQAPGQRLEWMGWIYPGSGYTKYNEKFKVRVTLTVDTSASTAYMELSSLRSEDTAVYFCARSGIYHYVSSYYFDHWGKGTTVTVSS VL: DIQMTQSPSTLSASVGDRVTITCKASQDVGTAVAWYQQKPGKSPKLLIYWASTRHTGVPSRFSGSGSGTEFTLTISSVQPDDFATYFCQQYSSYTFGGGTKVEIK
2.79	0.75	144000	BG87P-Bz6 (antibody, V domains shown) VH: QIQLVQSGAEVKKPGASVKVSCKASGYSFTDYHINWVRQAPGQRLEWMGWIYPGSGYTKYNEKFKVRVTLTVDTSASTAYMELSSLRSEDTAVYFCARSGIYHYVSSYYFDHWGKGTTVTVSS VL: DIQMTQSPSTLSASVGDRVTITCKASQDVGTAVAWYQQKPGKAPKLLIYWASTRHTGVPSRFSGSGSGTEFTLTISSVQPDDFATYFCQQYSSYTFGGGTKVEIK
2.63	0.56	107000	BG87P-Bz3 (antibody, V domains shown) VH: QIQLVQSGAEVKKPGASVKVSCKASGYSFTDYHINWVRQAPGQRLEWMGWIYPGSGYTKYNEKFKVRVTITVDTSASTAYMELSSLRSEDTAVYFCARSGIYHYVSSYYFDHWGKGTTVTVSS VL: DIQMTQSPSTLSASVGDRVTITCKASQDVGTAVAWYQQKPGKSPKLLIYWASTRHTGVPSRFSGSGSGTEFTLTISSVQPDDFATYFCQQYSSYTFGGGTKVEIK
48.7	0.28	54000	BG87P-m8 (antibody, V domains shown, Variant of BG87P-Bz0 with H33A; constant regions not restated (parent: human IgG1/kappa)) VH: QIQLVQSGAEVKKPGASVKVSCKASGYSFTDYAINWVRQAPGQRLEWMGWIYPGSGYTKYNEKFKVRVTLTVDTSASTAYMELSSLRSEDTAVYFCARSGIYHYVSSYYFDHWGKGTTVTVSS VL: DIQMTQSPSTLSASVGDRVTITCKASQDVGTAVAWYQQKPGKSPKLLIYWASTRHTGVPSRFSGSGSGTEFTLTISSVQPDDFATYFCQQYSSYTFGGGTKVEIK
2.55	0.73	141000	BG87P-Bz5 (antibody, V domains shown) VH: QIQLVQSGAEVKKPGASVKVSCKASGYSFTDYHINWVRQAPGQRLEWMGWIYPGSGYTKYNEKFKVRVTLTVDTSASTAYMELSSLRSEDTAVYYCARSGIYHYVSSYYFDHWGKGTTVTVSS VL: DIQMTQSPSTLSASVGDRVTITCKASQDVGTAVAWYQQKPGKSPKLLIYWASTRHTGVPSRFSGSGSGTEFTLTISSVQPDDFATYFCQQYSSYTFGGGTKVEIK
1.88	0.57	110000	BG87P-Bz4 (antibody, V domains shown) VH: QIQLVQSGAEVKKPGASVKVSCKASGYSFTDYHINWVRQAPGQRLEWMGWIYPGSGYTKYNEKFKVRVTLTRDTSASTAYMELSSLRSEDTAVYFCARSGIYHYVSSYYFDHWGKGTTVTVSS VL: DIQMTQSPSTLSASVGDRVTITCKASQDVGTAVAWYQQKPGKSPKLLIYWASTRHTGVPSRFSGSGSGTEFTLTISSVQPDDFATYFCQQYSSYTFGGGTKVEIK
2.54	0.81	155000	BG87P-Bz7 (antibody, V domains shown) VH: QIQLVQSGAEVKKPGASVKVSCKASGYSFTDYHINWVRQAPGQRLEWMGWIYPGSGYTKYNEKFKVRVTLTVDTSASTAYMELSSLRSEDTAVYFCARSGIYHYVSSYYFDHWGKGTTVTVSS VL: DIQMTQSPSTLSASVGDRVTITCKASQDVGTAVAWYQQKPGKSPKLLIYWASTRHTGVPSRFSGSGSGTEFTLTISSLQPDDFATYFCQQYSSYTFGGGTKVEIK
2.65	0.44	84300	BG87P-Bz2 (antibody, V domains shown) VH: QIQLVQSGAEVKKPGASVKVSCKASGYTFTDYHINWVRQAPGQRLEWMGWIYPGSGYTKYNEKFKVRVTLTVDTSASTAYMELSSLRSEDTAVYFCARSGIYHYVSSYYFDHWGKGTTVTVSS VL: DIQMTQSPSTLSASVGDRVTITCKASQDVGTAVAWYQQKPGKSPKLLIYWASTRHTGVPSRFSGSGSGTEFTLTISSVQPDDFATYFCQQYSSYTFGGGTKVEIK
2.43	0.7	134000	BG87P-m7 (antibody, V domains shown, PTM removal variant of BG87P-Bz0; constant regions not restated (parent: human IgG1/kappa)) VH: QIQLVQSGAEVKKPGASVKVSCKASGYSFTDYHINWVRQAPGQRLEWMGWIYPGSGYTKYNEKFKGRVTLTVDTSASTAYMELSSLRSEDTAVYFCARSGIYHYVSSYYFDHWGKGTTVTVSS VL: DIQMTQSPSTLSASVGDRVTITCKASQDVGTAVAWYQQKPGKSPKLLIYWASTRHTGVPSRFSGSGSGTEFTLTISSVQPDDFATYFCQQYSSYTFGGGTKVEIK
2.34	0.62	118000	BG87P-m6 (antibody, V domains shown, PTM removal variant of BG87P-Bz0; constant regions not restated (parent: human IgG1/kappa)) VH: QIQLVQSGAEVKKPGASVKVSCKASGYSFTDYHINWVRQAPGQRLEWMGWIYPGSGYTKYNEKFKVRVTLTVDTSASTAYMELSSLRSEDTAVYFCARSGIYHYVSSYYFQHWGKGTTVTVSS VL: DIQMTQSPSTLSASVGDRVTITCKASQDVGTAVAWYQQKPGKSPKLLIYWASTRHTGVPSRFSGSGSGTEFTLTISSVQPDDFATYFCQQYSSYTFGGGTKVEIK
2.19	0.52	99700	BG87P-Bz1 (antibody, V domains shown) VH: QVQLVQSGAEVKKPGASVKVSCKASGYSFTDYHINWVRQAPGQRLEWMGWIYPGSGYTKYNEKFKVRVTLTVDTSASTAYMELSSLRSEDTAVYFCARSGIYHYVSSYYFDHWGKGTTVTVSS VL: DIQMTQSPSTLSASVGDRVTITCKASQDVGTAVAWYQQKPGKSPKLLIYWASTRHTGVPSRFSGSGSGTEFTLTISSVQPDDFATYFCQQYSSYTFGGGTKVEIK
4.19	0.66	126000	BG87P-m5 (antibody, V domains shown, PTM removal variant of BG87P-Bz0; constant regions not restated (parent: human IgG1/kappa)) VH: QIQLVQSGAEVKKPGASVKVSCKASGYSFTDYHINWVRQAPGQRLEWMGWIYPGSGYTKYNEKFKVRVTLTVDTSASTAYMELSSLRSEDTAVYFCARSGIYHYVSSYYFEHWGKGTTVTVSS VL: DIQMTQSPSTLSASVGDRVTITCKASQDVGTAVAWYQQKPGKSPKLLIYWASTRHTGVPSRFSGSGSGTEFTLTISSVQPDDFATYFCQQYSSYTFGGGTKVEIK
1.71	0.68	131000	BG87P-Bz8 (antibody, V domains shown) VH: QIQLVQSGAEVKKPGASVKVSCKASGYSFTDYHINWVRQAPGQRLEWMGWIYPGSGYTKYNEKFKVRVTLTVDTSASTAYMELSSLRSEDTAVYFCARSGIYHYVSSYYFDHWGKGTTVTVSS VL: DIQMTQSPSTLSASVGDRVTITCKASQDVGTAVAWYQQKPGKSPKLLIYWASTRHTGVPSRFSGSGSGTEFTLTISSVQPDDFATYYCQQYSSYTFGGGTKVEIK
3.56	1.08	207000	BG87P-m1 (antibody, V domains shown, PTM removal variant of chBG87P; constant regions not restated (parent: human IgG1/kappa)) VH: QIQLQQSGPELVKPGASVKISCKASGYSFTDYHINWVKQRPGQGLEWIGWIYPGSGYTKYNEKFKVKATLTVDTSSSTAYMHLTSLTSEDSAVYFCARSGIYHYVSSYYFEHWGQGTTLTVSS VL: DIVMTQSHTFMSTSVGDRVSITCKASQDVGTAVAWYQQKPGQSPKLLIYWASTRHTGVPDRFTGSGSGTDFTLTISNVQSEDLADYFCQQYSSYTFGGGTKLEIK
2.51	1.05	202000	BG87P-m2 (antibody, V domains shown, PTM removal variant of chBG87P; constant regions not restated (parent: human IgG1/kappa)) VH: QIQLQQSGPELVKPGASVKISCKASGYSFTDYHINWVKQRPGQGLEWIGWIYPGSGYTKYNEKFKVKATLTVDTSSSTAYMHLTSLTSEDSAVYFCARSGIYHYVSSYYFQHWGQGTTLTVSS VL: DIVMTQSHTFMSTSVGDRVSITCKASQDVGTAVAWYQQKPGQSPKLLIYWASTRHTGVPDRFTGSGSGTDFTLTISNVQSEDLADYFCQQYSSYTFGGGTKLEIK
2.32	1.18	227000	BG87P-m3 (antibody, V domains shown, PTM removal variant of chBG87P (VH V65G); constant regions not restated (parent: human IgG1/kappa)) VH: QIQLQQSGPELVKPGASVKISCKASGYSFTDYHINWVKQRPGQGLEWIGWIYPGSGYTKYNEKFKGKATLTVDTSSSTAYMHLTSLTSEDSAVYFCARSGIYHYVSSYYFDHWGQGTTLTVSS VL: DIVMTQSHTFMSTSVGDRVSITCKASQDVGTAVAWYQQKPGQSPKLLIYWASTRHTGVPDRFTGSGSGTDFTLTISNVQSEDLADYFCQQYSSYTFGGGTKLEIK
